Data reported in the supplement of paper PMC9233669.
Variants at the floor of the assay were thinned out.

Key:
[1] = tested on: biotinyl-Trp-oxazolone; experiment: self-aminoacylation, catalytic enhancement (BWO) (fold over background); higher = more active; k-Seq, kA / k0A0; sequences stand for … in GGGAAUGGAUCCACAUCUACGAAUUC…UUCACUGCAGACUUGACGAAGCUG
How it was run: (§1)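 Each biotinyl-aminoacyl-oxazolone, at 2–1250 μM, was incubated with mutagenized RNA pools (0.43 μM) carrying a 21-nt variable region. The 50 μL reactions contained HEPES/NaCl/KCl/MgCl2/CaCl2 buffer with 5% acetonitrile at pH 6.9–7.0 and ran for 90 minutes at room temperature. After streptavidin capture, RNA was measured by qPCR in triplicate and by Illumina sequencing, and catalytic enhancement was calculated as median kA over the uncatalyzed rate from a pseudo-first-order fit of per-sequence fraction reacted.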

[2] = tested on: biotinyl-Leu-oxazolone; experiment: self-aminoacylation, catalytic enhancement (BLO) (fold over background); higher = more active; k-Seq, kA / k0A0; sequences stand for … in GGGAAUGGAUCCACAUCUACGAAUUC…UUCACUGCAGACUUGACGAAGCUG
How it was run: as §1

[3] = tested on: biotinyl-Met-oxazolone; experiment: self-aminoacylation, catalytic enhancement (BMO) (fold over background); higher = more active; k-Seq, kA / k0A0; sequences stand for … in GGGAAUGGAUCCACAUCUACGAAUUC…UUCACUGCAGACUUGACGAAGCUG
How it was run: as §1

[4] = tested on: biotinyl-Val-oxazolone; experiment: self-aminoacylation, catalytic enhancement (BVO) (fold over background); higher = more active; k-Seq, kA / k0A0; sequences stand for … in GGGAAUGGAUCCACAUCUACGAAUUC…UUCACUGCAGACUUGACGAAGCUG
How it was run: as §1

[5] = tested on: biotinyl-Ile-oxazolone; experiment: self-aminoacylation, catalytic enhancement (BIO) (fold over background); higher = more active; k-Seq, kA / k0A0; sequences stand for … in GGGAAUGGAUCCACAUCUACGAAUUC…UUCACUGCAGACUUGACGAAGCUG
How it was run: as §1

[6] = tested on: biotinyl-Phe-oxazolone; experiment: self-aminoacylation, catalytic enhancement (BFO) (fold over background); higher = more active; k-Seq, kA / k0A0; sequences stand for … in GGGAAUGGAUCCACAUCUACGAAUUC…UUCACUGCAGACUUGACGAAGCUG
How it was run: as §1

Sequence | self-aminoacylation [1] | self-aminoacylation [2] | self-aminoacylation [3] | self-aminoacylation [4] | self-aminoacylation [5] | self-aminoacylation [6]
AAGUUUGUUAAUAGACGCAAG [Fam3.1 aminoacylation ribozyme variant] | 0.609 | 0.399 | 0.587 | 0.536 | 0.583 | 0.803
AUUACCCUGGUCAUCAAGUGA [Fam2.1 aminoacylation ribozyme variant] | 2.87 | 2.25 | 2.31 | 1.79 | 1.51 | 4.11
AUUACCCUAGUCACCGAGUGA [Fam2.1 aminoacylation ribozyme variant] | 7.33 | 6.48 | 6.48 | 3.27 | 2.89 | 23.1
CUACUUCAAACAAUUGGUUUG [Fam1A.1 aminoacylation ribozyme variant] | 0.708 | 0.721 | 0.676 | 0.7 | 0.757 | 0.803
CCACACUUCAAGCAAUCGGUC [Fam1B.1 aminoacylation ribozyme variant] | 23.9 | 1.44 | 0.964 | 1.25 | 1.01 | 59.3
AUUCACCUAGGCCAUCGGGUA [Fam2.2 aminoacylation ribozyme variant] | 3.52 | 3.81 | 3.31 | 2.21 | 2.42 | 16.4
AUUACCUUGGACAUCGAGUGA [Fam2.1 aminoacylation ribozyme variant] | 7.94 | 6.08 | 5.7 | 2.9 | 3.16 | 26.3
GAGUUUACUAAUAGUCGCAAG [Fam3.1 aminoacylation ribozyme variant] | 2.33 | 1.59 | 1.19 | 1.29 | 1.84 | 3.13
AAGUUUGCUAAUAGUUGUAAG [Fam3.1 aminoacylation ribozyme variant] | 1.55 | 1.12 | 1.48 | 1.28 | 1.29 | 2.23
ACGUUUGCUAAUAGGCGCAAG [Fam3.1 aminoacylation ribozyme variant] | 0.911 | 1.67 | 1.35 | 1.61 | 1.94 | 5.88
CCACACUUCAAGUAAUCGGUG [Fam1B.1 aminoacylation ribozyme variant] | 4.68 | 6.33 | 4.68 | 2.98 | 3.28 | 33.4
AUUACCCUCGUCAUCGAGUGG [Fam2.1 aminoacylation ribozyme variant] | 0.389 | 1.46 | 1.31 | 0.932 | 0.948 | 0.728
CUACUACAAACAAUCGUUCUG [Fam1A.1 aminoacylation ribozyme variant] | 0.338 | 0.538 | 0.468 | 0.649 | 0.648 | 0.604
CCACACUUCAAACAAUCGUUC [Fam1B.1 aminoacylation ribozyme variant] | 0.778 | 0.623 | 0.697 | 0.822 | 0.759 | 1.55
AAGUUUGCUGCUAGUCGCAAG [Fam3.1 aminoacylation ribozyme variant] | 1.19 | 1.3 | 1.57 | 1.31 | 1.21 | 2.64
CCACACUUCAAGCAAUCGGUU [Fam1B.1 aminoacylation ribozyme variant] | 7.61 | 1.38 | 1.36 | 1.59 | 1.35 | 9.59
CCACACCUCAAGCUAUCGGUC [Fam1B.1 aminoacylation ribozyme variant] | 0.809 | 1.18 | 1.21 | 1.27 | 1.37 | 1.1
CCACACUUCGAGCAAUCGGUA [Fam1B.1 aminoacylation ribozyme variant] | 1 | 0.849 | 0.716 | 1.06 | 0.715 | 0.573
CCACACUUAAAGGAAUCGGUC [Fam1B.1 aminoacylation ribozyme variant] | 0.763 | 0.906 | 0.953 | 1.01 | 1.12 | 0.88
CCACACUUCAAGGAAGCGGUC [Fam1B.1 aminoacylation ribozyme variant] | 0.619 | 1.13 | 1.06 | 1.28 | 0.986 | 0.364
CUACAUCAAAGAAUCGGUCUG [Fam1A.1 aminoacylation ribozyme variant] | 0.67 | 0.592 | 0.817 | 0.68 | 0.78 | 0.801
AUUCACCUAGGCCAUCGCGUG [Fam2.2 aminoacylation ribozyme variant] | 3.85 | 6.31 | 4.45 | 4.15 | 4.69 | 31.6
AUGACCCUGGUCAUCUAGUGA [Fam2.1 aminoacylation ribozyme variant] | 9.46 | 8.57 | 8.18 | 3.7 | 3.75 | 63.5
AUUACCCUGGUCAUAGAGUGA [Fam2.1 aminoacylation ribozyme variant] | 11.9 | 9.8 | 10.4 | 4.94 | 4.72 | 54.8
AUAACCAUGGUCAUCGAGUGA [Fam2.1 aminoacylation ribozyme variant] | 8.43 | 7.68 | 7.91 | 3.7 | 3.91 | 23.8
AUUAACCUAGGUCAUCGGGGG [Fam2.2 aminoacylation ribozyme variant] | 2.88 | 3.88 | 3.77 | 2.1 | 2.68 | 3.87

Sequence | self-aminoacylation [1] | self-aminoacylation [2] | self-aminoacylation [3] | self-aminoacylation [4] | self-aminoacylation [5] | self-aminoacylation [6]
UUUACCCUGGUCAUCGAGAGA [Fam2.1 aminoacylation ribozyme variant] | 1.86 | 1.32 | 1.61 | 1.3 | 1.28 | 2.19
AUUACCCAGGUCAUCGCGUGA [Fam2.1 aminoacylation ribozyme variant] | 19.3 | 22.9 | 20.3 | 10.3 | 8.22 | 156
AAGAUUGCUACUAGUCGCAAG [Fam3.1 aminoacylation ribozyme variant] | 1.98 | 1.73 | 1.27 | 1.32 | 1.55 | 2.44
CUAAUACAAACAAUCGGUCUG [Fam1A.1 aminoacylation ribozyme variant] | 0.678 | 0.477 | 0.674 | 0.682 | 0.676 | 0.757
AAGUUUGCUAGUACUCGCAAG [Fam3.1 aminoacylation ribozyme variant] | 0.574 | 0.773 | 0.907 | 0.878 | 0.894 | 0.836
AUAACCCUGGUCAUCGAAUGA [Fam2.1 aminoacylation ribozyme variant] | 0.785 | 0.798 | 1.07 | 0.954 | 0.882 | 0.579
AUUACCCUGCUCAUUGAGUGA [Fam2.1 aminoacylation ribozyme variant] | 5.58 | 4.39 | 4.57 | 2.39 | 2.27 | 19.1
AUGCACCCAGGUCAUCGGGUG [Fam2.2 aminoacylation ribozyme variant] | 5.32 | 4.35 | 3.42 | 3.89 | 3.29 | 21
CCACACUUCAAGCUAUCGGGC [Fam1B.1 aminoacylation ribozyme variant] | 2.2 | 1.45 | 1.46 | 1.76 | 1.67 | 1.57
CUACUUCAAACAAUCUAUCUG [Fam1A.1 aminoacylation ribozyme variant] | 0.474 | 0.485 | 0.461 | 0.579 | 0.507 | 0.981
CGACUUCAAACAUUCGGUCUG [Fam1A.1 aminoacylation ribozyme variant] | 2.1 | 1.43 | 1.49 | 1.96 | 1.81 | 8.04
CUACACUUCUAGCAAUCGGUC [Fam1B.1 aminoacylation ribozyme variant] | 0.565 | 0.669 | 0.572 | 0.635 | 0.706 | 0.693
GUUAACCUAGGUCAUCGGGUG [Fam2.2 aminoacylation ribozyme variant] | 12.7 | 16.1 | 11.9 | 6.73 | 7.79 | 77.3
AUUCACCUUGGUCAUCGGGUC [Fam2.2 aminoacylation ribozyme variant] | 1.28 | 1.15 | 1.32 | 1.58 | 1.2 | 4.87
AUUCACCUCGGUCAACGGGUG [Fam2.2 aminoacylation ribozyme variant] | 3.36 | 5.39 | 3.98 | 2.82 | 2.44 | 27.8
AAGUUUACUACUAGUCGCAAG [Fam3.1 aminoacylation ribozyme variant] | 1.76 | 1.27 | 1.46 | 1.6 | 1.57 | 2.04
CUACGCUUCAAGCAAUCGGUC [Fam1B.1 aminoacylation ribozyme variant] | 29.9 | 1.86 | 1.14 | 1.06 | 0.964 | 59.9
AAGUCUGCUAAUAGUCGCAAC [Fam3.1 aminoacylation ribozyme variant] | 0.655 | 1.39 | 1.04 | 1.06 | 1.03 | 1.39
CUACUCCAAACAAUAGGUCUG [Fam1A.1 aminoacylation ribozyme variant] | 0.734 | 0.744 | 0.938 | 0.776 | 0.839 | 1.17
AUUCACCACGGUCAUCGGGUG [Fam2.2 aminoacylation ribozyme variant] | 10 | 12.3 | 9.37 | 6.13 | 5.71 | 68.7
UUACUUCACACAAUCGGUCUG [Fam1A.1 aminoacylation ribozyme variant] | 1.03 | 1.17 | 1.06 | 1.28 | 1.27 | 1.66
AGUCACCUAGGUCAUCGCGUG [Fam2.2 aminoacylation ribozyme variant] | 14.3 | 18.3 | 14.4 | 9.1 | 8.4 | 97
GUUACCCUGGUGAUCGAGUGA [Fam2.1 aminoacylation ribozyme variant] | 8.86 | 7.43 | 6.75 | 3.33 | 3.37 | 34.8
ACUACCCUGGUCAUCGCGUGA [Fam2.1 aminoacylation ribozyme variant] | 19.3 | 21.5 | 17.9 | 12.1 | 8.88 | 163
AAGUAUGCUAAUAGUCCCAAG [Fam3.1 aminoacylation ribozyme variant] | 1.54 | 1.02 | 1.18 | 1.16 | 1.14 | 3.66
